T1: cynomolgus 5T4 on cells (cynomolgus macaque, UniProt Q4R8Y9 35-420)
T1 construct: whole, on cells; also called CHO-K1/cynomolgus 5T4
T1 sequence (looked up): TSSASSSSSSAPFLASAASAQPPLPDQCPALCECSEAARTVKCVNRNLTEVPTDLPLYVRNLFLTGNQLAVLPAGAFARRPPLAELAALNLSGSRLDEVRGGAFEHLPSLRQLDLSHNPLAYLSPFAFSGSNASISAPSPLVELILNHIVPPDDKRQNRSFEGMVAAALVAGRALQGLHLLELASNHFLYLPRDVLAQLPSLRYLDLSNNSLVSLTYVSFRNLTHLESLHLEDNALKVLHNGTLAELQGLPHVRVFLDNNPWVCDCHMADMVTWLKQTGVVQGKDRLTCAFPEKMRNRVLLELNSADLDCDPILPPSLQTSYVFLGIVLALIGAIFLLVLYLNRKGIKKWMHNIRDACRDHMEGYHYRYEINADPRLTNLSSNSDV

T2: recombinant human 5T4 extracellular domain (human, UniProt Q13641 32-355)
T2 construct: The entry starts at Met 1; also called Hu 5T4; 5T4 ECD
T2 sequence: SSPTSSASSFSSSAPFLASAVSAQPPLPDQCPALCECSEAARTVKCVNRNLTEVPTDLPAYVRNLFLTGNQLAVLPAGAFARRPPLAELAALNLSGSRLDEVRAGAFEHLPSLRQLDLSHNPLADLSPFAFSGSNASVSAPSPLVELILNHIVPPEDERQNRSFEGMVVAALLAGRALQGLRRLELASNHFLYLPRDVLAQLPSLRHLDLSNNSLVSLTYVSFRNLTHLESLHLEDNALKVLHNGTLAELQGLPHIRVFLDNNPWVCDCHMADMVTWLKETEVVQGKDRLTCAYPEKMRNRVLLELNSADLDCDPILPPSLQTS

T3: human 5T4 on cells (human, UniProt Q13641 32-420)
T3 construct: Human 5T4 on transfected cells (CHO-K1, CT26, B16) or endogenous on human tumour lines; the cell line is named under assay; also called trophoblast glycoprotein; TPBG
T3 sequence: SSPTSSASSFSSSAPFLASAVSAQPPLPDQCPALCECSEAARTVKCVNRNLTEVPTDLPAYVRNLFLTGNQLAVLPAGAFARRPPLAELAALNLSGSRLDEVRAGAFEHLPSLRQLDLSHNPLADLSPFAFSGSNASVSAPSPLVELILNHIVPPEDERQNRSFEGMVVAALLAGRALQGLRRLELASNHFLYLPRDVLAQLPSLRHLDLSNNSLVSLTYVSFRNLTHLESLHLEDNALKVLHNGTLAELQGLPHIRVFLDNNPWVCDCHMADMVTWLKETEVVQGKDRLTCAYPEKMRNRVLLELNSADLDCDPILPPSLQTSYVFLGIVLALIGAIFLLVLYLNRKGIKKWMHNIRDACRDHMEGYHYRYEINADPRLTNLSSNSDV

B1: ALG.APV-210 (bispecific antibody)
chain: EVQLLESGGGLVQPGGSLRLSCAASGFTFSHGSMYWVRQAPGKGLEWVSSISSGSGSTYYADSVKGRFTISHDNSKNTLYLQMNSLRAEDTAVYYCARSSYYGSYYSIDYWGQGTLVTVSSGGGGSGGGGSGGGGSGGGGSDIQMTQSPSSLSASVGDRVTITCRASQSISSYLNWYQQKPGKAPKLLIYAASSLQSGVPSRFSGSGSGTDFTLTISSLQPEDFATYYCQQYYDNLPTFGQGTKLEIKEPKSSDKTHTCPPCPAPEAAGAPSVFLFPPKPKDTLMISRTPEVTCVVVDVSHEDPEVKFNWYVDGVEVHNAKTKPREEQYNSTYRVVSVLTVLHQDWLNGKEYKCAVSNKALPAPIEKTISKAKGQPREPQVYTLPPSRDELTKNQVSLTCLVKGFYPSDIAVEWESNGQPENNYKTTPPVLDSDGSFFLYSKLTVDKSRWQQGNVFSCSVMHEALHNHYTQKSLSLSPGSGGGGSGGGGSGGGGSPSEVQLLESGGGLVQPGGSLRLSCAASGFTFSSYAMSWVRQAPGKCLEWVSAISGSGGSTYYADSVKGRFTISRDNSKNTLYLQMNSLRAEDTAVYYCARYYGGYYSAWMDYWGQGTLVTVSSGGGGSGGGGSGGGGSGGGGSDIQMTQSPSSLSASVGDRVTITCRASQSISSFLNWYQQKPGKAPKLLIYAASSLQSGVPSRFSGSGSGTDFTLTISSLQPEDSATYYCQQTYGYLHTFGCGTKLEIKR
notes: scFv-Fc-scFv (ADAPTIR) homodimer with stabilizing disulfide in the 1210 scFv; also called ALG.APV-223; 5T4-CD137 bispecific antibody
B2: ALG.APV-187 (bispecific antibody)
chain: EVQLLESGGGLVQPGGSLRLSCAASGFTFSHGSMYWVRQAPGKGLEWVSSISSGSGSTYYADSVKGRFTISHDNSKNTLYLQMNSLRAEDTAVYYCARSSYYGSYYSIDYWGQGTLVTVSSGGGGSGGGGSGGGGSGGGGSDIQMTQSPSSLSASVGDRVTITCRASQSISSYLNWYQQKPGKAPKLLIYAASSLQSGVPSRFSGSGSGTDFTLTISSLQPEDFATYYCQQYYDNLPTFGQGTKLEIKSSEPKSSDKTHTCPPCPAPEAAGAPSVFLFPPKPKDTLMISRTPEVTCVVVDVSHEDPEVKFNWYVDGVEVHNAKTKPREEQYNSTYRVVSVLTVLHQDWLNGKEYKCAVSNKALPAPIEKTISKAKGQPREPQVYTLPPSRDELTKNQVSLTCLVKGFYPSDIAVEWESNGQPENNYKTTPPVLDSDGSFFLYSKLTVDKSRWQQGNVFSCSVMHEALHNHYTQKSLSLSPGSGGGGSGGGGSGGGGSPSEVQLLESGGGLVQPGGSLRLSCAASGFTFSSYAMSWVRQAPGKCLEWVSAISGSGGSTYYADSVKGRFTISRDNSKNTLYLQMNSLRAEDTAVYYCARYYGGYYSAWMDYWGQGTLVTVSSGGGGSGGGGSGGGGSGGGGSDIQMTQSPSSLSASVGDRVTITCRASQSISSFLNWYQQKPGKAPKLLIYAASSLQSGVPSRFSGSGSGTDFTLTISSLQPEDSATYYCQQTYGYLHTFGCGTKLEIKR
notes: scFv-Fc-scFv (ADAPTIR) homodimer with stabilizing disulfide in the 1210 scFv
B3: ALG.APV-198 (bispecific antibody)
chain: EVQLLESGGGLVQPGGSLRLSCAASGFTFSHGSMYWVRQAPGKGLEWVSSISSGSGSTYYADSVKGRFTISHDNSKNTLYLQMNSLRAEDTAVYYCARSSYYGSYYSIDYWGQGTLVTVSSGGGGSGGGGSGGGGSGGGGSDIQMTQSPSSLSASVGDRVTITCRASQSISSYLNWYQQKPGKAPKLLIYAASSLQSGVPSRFSGSGSGTDFTLTISSLQPEDFATYYCQQYYDNLPTFGQGTKLEIKSSEPKSSDKTHTCPPCPAPEAAGAPSVFLFPPKPKDTLMISRTPEVTCVVVDVSHEDPEVKFNWYVDGVEVHNAKTKPREEQYNSTYRVVSVLTVLHQDWLNGKEYKCAVSNKALPAPIEKTISKAKGQPREPQVYTLPPSRDELTKNQVSLTCLVKGFYPSDIAVEWESNGQPENNYKTTPPVLDSDGSFFLYSKLTVDKSRWQQGNVFSCSVMHEALHNHYTQKSLSLSPGSGGGGSGGGGSGGGGSPSEVQLLESGGGLVQPGGSLRLSCAASGFDFESYAMSWVRQAPGKCLEWVSAISGSGGSTYYADSVKGRFTISRDNSKNTLYLQMNSLRAEDTAVYYCARYYGGYYSAWMDYWGQGTLVTVSSGGGGSGGGGSGGGGSGGGGSDIQMTQSPSSLSASVGDRVTITCRASQSIRSALNWYQQKPGKAPKLLIYAASSLQSGVPSRFSGSGSGTDFTLTISSLQPEDFATYYCQQTYGYLHTFGCGTKLEIKR
notes: scFv-Fc-scFv (ADAPTIR) homodimer
B4: ALG.APV-196 (bispecific antibody)
chain: EVQLLESGGGLVQPGGSLRLSCAASGFTFSYGSMYWVRQAPGKGLEWVSSISSGSGSTYYADSVKGRFTISHDNSKNTLYLQMNSLRAEDTAVYYCARSSYYGSYYSIDYWGQGTLVTVSSGGGGSGGGGSGGGGSGGGGSDIQMTQSPSSLSASVGDRVTITCRASQSISSYLNWYQQKPGKAPKLLIYAASSLQSGVPSRFSGSGSGTDFTLTISSLQPEDFATYYCQQYYDNLPTFGQGTKLEIKSSEPKSSDKTHTCPPCPAPEAAGAPSVFLFPPKPKDTLMISRTPEVTCVVVDVSHEDPEVKFNWYVDGVEVHNAKTKPREEQYNSTYRVVSVLTVLHQDWLNGKEYKCAVSNKALPAPIEKTISKAKGQPREPQVYTLPPSRDELTKNQVSLTCLVKGFYPSDIAVEWESNGQPENNYKTTPPVLDSDGSFFLYSKLTVDKSRWQQGNVFSCSVMHEALHNHYTQKSLSLSPGSGGGGSGGGGSGGGGSPSEVQLLESGGGLVQPGGSLRLSCAASGFDFESYAMSWVRQAPGKCLEWVSAISGSGGSTYYADSVKGRFTISRDNSKNTLYLQMNSLRAEDTAVYYCARYYGGYYSAWMDYWGQGTLVTVSSGGGGSGGGGSGGGGSGGGGSDIQMTQSPSSLSASVGDRVTITCRASQSIRSALNWYQQKPGKAPKLLIYAASSLQSGVPSRFSGSGSGTDFTLTISSLQPEDFATYYCQQTYGYLHTFGCGTKLEIKR
notes: as for B3

How the values were obtained:
[1] = target: T4, CD137 / 4-1BB (soluble antigen, form not stated) (UniProt Q07011 24-186, limits assumed); test: ELISA
T4 construct: also called biotinylated 4-1BB antigen; CD137 in ELISA

[2] = target: T1, cynomolgus 5T4 on cells; test: flow cytometry, CHO-K1/cynomolgus 5T4 transfectants (FIG. 14)
Description: (§1) Binding studies were performed by standard flow cytometry-based staining procedures two cell lines expressing 5T4:CHO-K1 cells (obtained from Alligator) transduced with human or cynomolgus macaque 5T4 and SKOV-3 human ovarian adenocarcinoma cells which express (human) 5T4. All labeling and washes were performed in U-bottom 96-well plates in saline buffer with 0.1% BSA and 2 mM EDTA. Cell were plated at approximately 100,000 cells per well and incubated with a range of 100 nM to 0.05 nM concentrations of test molecules in 50 μL volume/well, for 30 minutes on ice. Cells were washed three times then incubated for another 30 min on ice with fluorescently-labeled secondary polyclonal antibody, F(ab′)² goat anti-human IgG (Jackson ImmunoResearch Laboratories). The cells were then washed twice and the samples acquired in a BD LSRII or a Symphony A3 flow cytometer. The sample files were analyzed using FlowJo software; the mean fluorescence intensity (MFI-mean) or median fluorescence intensity (MFI-median) of the live population of cells in each well was calculated after gating on live cells (forward vs side scatter). Nonlinear regression analysis to determine EC₅₀ values was performed in GraphPad Prism 6® graphing and statistics software.
All the constructs bound with EC₅₀ values in the range of 1 to 3 nM. […]

[3] = target: T2, recombinant human 5T4 extracellular …; test: SPR, Biacore T200, bispecific captured by anti-human IgG, monomeric ECD injected, 1:1 model
Description: (§2) Goat anti-human IgG F(ab′)2 fragment (Jackson ImmunoResearch) at 20 μg/mL in 10 mM sodium acetate (pH 4.5) was immobilized at a density of 2000 response units (RU) onto the flow cell of a CM5 research-grade sensor chip (GE) by standard amine coupling chemistry. Each bispecific variant at 200 nM in HBS-EP+ buffer was captured in the flow cell with the immobilized anti-human IgG at a flow rate of 50 μL/min for 60 sec to reach ˜500 RU response, leaving one flow cell surface unmodified as the reference. Following a 30 sec stabilization period, four different concentrations of each ECD (0, 20, 60, and 180 nM) were injected at 50 μL/min for either 120 sec followed by a 240 sec dissociation period (for 5T4) or 90 sec followed by a 180 sec dissociation period (for 4-1BB). Regeneration was achieved by duplicate injections of 10 mM glycine (pH 1.5) at a flow rate of 50 μL/min for 30 sec followed by HBS-EP+ buffer stabilization for 1 min.
(§3) Sensorgrams obtained from kinetic SPR measurements were analyzed by the double subtraction method. The signal from the reference flow cell was subtracted from the analyte binding response obtained from flow cells with immobilized or captured ligands. Buffer reference responses were then averaged from multiple injections. The averaged buffer reference responses were then subtracted from analyte binding responses, and the final double-referenced data were analyzed with Biacore T200 Evaluation software (2.0, GE), globally fitting data to derive kinetic parameters. All sensorgrams were fitted using a simple one-to-one binding model.

[4] = target: T5, recombinant human CD137 extracellular domain (human, UniProt Q07011 24-186); test: as above
T5 construct: The entry starts at Met 1; also called Hu CD137; 4-1BB ECD
Description: as §2, §3

[5] = target: T1, cynomolgus 5T4 on cells; test: flow cytometry, CHO-K1/cynomolgus 5T4 transfectants (FIG. 7)
Description: as §1

[6] = target: T3, human 5T4 on cells; test: flow cytometry, SKOV-3 cells (FIG. 6)
Description: as §1
The differences in EC₅₀ values between constructs were more evident when binding assays were conducted on SKOV-3 cells. […]

Row | Binder | EC50 [1] [nM] | binding result [2] | Kd [3] [nM] | koff [3] [s⁻¹] | kon [3] [M⁻¹ s⁻¹] | Kd [4] [nM] | koff [4] [s⁻¹] | kon [4] [M⁻¹ s⁻¹] | binding result [5] | binding result [6]
1 | B1 | 0.7 | binds | 79 | 0.0012 | 15000 | 59 | 0.033 | 550000 | – | –
2 | B2 | – | – | 35 | 0.00072 | 21000 | 73 | 0.027 | 370000 | binds | –
3 | B3 | – | – | – | – | – | – | – | – | binds | binds
4 | B4 | – | – | – | – | – | – | – | – | binds | binds
